In PMC6294249, “CryoEM reveals how the complement membrane attack complex ruptures lipid bilayers” (Nature Communications, 2018):

Legend:
complement C6 = biological target: T1, complement C6 (human, UniProt P13671 22-934); assay: cryo-EM structure; human MAC assembled on DOPC:DOPE liposomes by sequential addition of C5b6, C7, C8 and C9 (molar ratio 1:1:1:18, 1 h at 37 °C, then 4 °C overnight; 20 mM HEPES-NaOH, 150 mM NaCl, pH 7.4), solubilised in Cymal-5, purified by sucrose density centrifugation; open and closed conformations separated by 3D classification; settings: both partners purified
T1 construct: complement component C6, human; 10 domains (TSP1, TSP2, LDL, MACPF, EGF, TSP3, CCP1, CCP2, FIM1, FIM2); It stood in the assay as part of the bought C5b6 complex; FIM1 and FIM2 were left out of the atomic model (weak or no density); source: bought: Complement Technology (as the C5b6 complex)
T1 sequence (P13671 22-934): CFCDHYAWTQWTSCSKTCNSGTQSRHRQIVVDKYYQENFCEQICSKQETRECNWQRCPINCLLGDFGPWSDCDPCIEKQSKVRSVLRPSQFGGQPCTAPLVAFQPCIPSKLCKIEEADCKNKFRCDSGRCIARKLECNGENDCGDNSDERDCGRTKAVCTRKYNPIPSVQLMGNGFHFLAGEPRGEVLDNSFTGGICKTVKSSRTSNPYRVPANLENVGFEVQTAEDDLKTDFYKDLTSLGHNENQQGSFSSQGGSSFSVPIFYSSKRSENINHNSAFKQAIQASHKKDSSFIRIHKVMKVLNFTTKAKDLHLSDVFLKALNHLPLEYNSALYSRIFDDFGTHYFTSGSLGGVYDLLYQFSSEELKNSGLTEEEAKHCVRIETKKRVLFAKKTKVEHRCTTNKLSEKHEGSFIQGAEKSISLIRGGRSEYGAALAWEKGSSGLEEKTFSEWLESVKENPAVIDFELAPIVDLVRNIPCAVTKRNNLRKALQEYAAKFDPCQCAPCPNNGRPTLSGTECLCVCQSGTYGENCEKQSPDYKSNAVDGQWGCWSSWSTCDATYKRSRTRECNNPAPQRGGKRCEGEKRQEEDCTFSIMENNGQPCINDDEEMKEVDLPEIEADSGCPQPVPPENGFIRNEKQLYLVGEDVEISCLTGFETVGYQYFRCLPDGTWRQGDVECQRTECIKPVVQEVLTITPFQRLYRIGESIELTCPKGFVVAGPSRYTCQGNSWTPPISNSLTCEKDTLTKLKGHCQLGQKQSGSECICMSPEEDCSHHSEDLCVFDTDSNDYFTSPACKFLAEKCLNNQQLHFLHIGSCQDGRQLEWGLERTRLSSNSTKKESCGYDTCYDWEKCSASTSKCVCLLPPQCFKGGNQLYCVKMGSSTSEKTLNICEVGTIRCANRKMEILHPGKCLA

[1] = biological target: T2, complement C8 alpha chain (human, UniProt P07357 31-584, N-linked glycan at N407); assay: as above; settings: both partners purified
T2 construct: complement component C8 alpha chain, human; It stood in the assay as one chain of the bought C8 heterotrimer (α, β, γ); also called C8α; source: bought: Complement Technology (as C8)
T2 sequence (P07357 31-584): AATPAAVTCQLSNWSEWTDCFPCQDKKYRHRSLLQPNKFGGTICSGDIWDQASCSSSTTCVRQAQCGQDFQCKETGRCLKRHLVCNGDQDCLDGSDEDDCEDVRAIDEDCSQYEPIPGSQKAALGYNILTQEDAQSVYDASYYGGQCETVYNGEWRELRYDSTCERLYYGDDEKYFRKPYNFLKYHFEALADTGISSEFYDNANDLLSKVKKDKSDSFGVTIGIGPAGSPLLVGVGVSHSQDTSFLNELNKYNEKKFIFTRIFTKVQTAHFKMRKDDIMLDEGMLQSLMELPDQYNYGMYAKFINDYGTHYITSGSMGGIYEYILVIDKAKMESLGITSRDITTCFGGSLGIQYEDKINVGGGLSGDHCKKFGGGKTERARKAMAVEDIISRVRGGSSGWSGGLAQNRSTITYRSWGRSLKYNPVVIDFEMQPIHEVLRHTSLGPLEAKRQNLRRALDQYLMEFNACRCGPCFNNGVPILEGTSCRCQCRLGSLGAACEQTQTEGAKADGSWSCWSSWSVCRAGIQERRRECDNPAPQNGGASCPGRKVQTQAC

- binding result (complement C6): binds
- binding result [1]: binds
B1: complement C9 (natural protein)
chain: not shown
modifications: N-linked glycans at N215, N256, N394; O-linked glycan at T427
notes: complement component C9, human; The model began from a homology model with C8β as template; source: bought: Complement Technology
